The target of test [1] is T1, Human BTC (human, UniProt P35070 32-111).
T1 construct: Soluble human BTC of the Biacore, ELISA, MSD and cell assays; also called human betacellulin; soluble human BTC
T1 sequence: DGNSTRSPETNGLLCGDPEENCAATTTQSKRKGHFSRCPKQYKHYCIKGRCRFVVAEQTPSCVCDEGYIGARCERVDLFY
Description: SPR (Biacore/ProteOn).

A further test addresses T2, Mouse BTC (mouse, UniProt Q05928 32-111, limits assumed).
T2 sequence (looked up): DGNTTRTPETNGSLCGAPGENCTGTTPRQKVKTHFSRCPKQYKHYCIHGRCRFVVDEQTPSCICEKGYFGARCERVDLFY
The experiment in a line: SPR (Biacore/ProteOn). (In general: Surface plasmon resonance follows binding to a sensor surface in real time, without labels.)

The next test deals with T3, Cyno BTC (cynomolgus, UniProt A0A2K5X5E5 32-111).
T3 construct: also called cynomolgus BTC
T3 sequence: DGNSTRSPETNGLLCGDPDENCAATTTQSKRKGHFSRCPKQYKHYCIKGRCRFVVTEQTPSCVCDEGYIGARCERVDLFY
The experiment in a line: SPR (Biacore/ProteOn).

The next test has as its target T4, Rat BTC (rat, UniProt Q9JJM4 32-111).
T4 sequence: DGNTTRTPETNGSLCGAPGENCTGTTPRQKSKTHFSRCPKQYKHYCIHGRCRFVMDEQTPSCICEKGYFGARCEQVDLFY
The experiment in a line: SPR (Biacore/ProteOn).

The next test deals with T5, Rabbit BTC (rabbit, UniProt G1SJ89 32-111).
T5 sequence: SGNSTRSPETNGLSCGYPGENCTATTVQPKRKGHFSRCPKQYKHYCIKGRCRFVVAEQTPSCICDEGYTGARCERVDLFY
Description: SPR (Biacore/ProteOn).

In test [2] the target is T1, Human BTC. Description: cell-based or functional assay.
Test [3] addresses T6, membrane-bound human BTC on 293F-hBTC cells (human, UniProt P35070 32-111).
T6 sequence: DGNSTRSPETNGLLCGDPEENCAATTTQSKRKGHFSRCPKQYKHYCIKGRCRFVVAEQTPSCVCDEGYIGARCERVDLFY
Description: cell-based or functional assay.

The next test deals with T7, Human VEGF165 (human, UniProt P15692 27-191).
T7 construct: mature; biotinylated in the VEGFR2 ELISAs; also called human VEGF-A; VEGF-A
T7 sequence (P15692 other isoform, or with tags, fused parts or gaps): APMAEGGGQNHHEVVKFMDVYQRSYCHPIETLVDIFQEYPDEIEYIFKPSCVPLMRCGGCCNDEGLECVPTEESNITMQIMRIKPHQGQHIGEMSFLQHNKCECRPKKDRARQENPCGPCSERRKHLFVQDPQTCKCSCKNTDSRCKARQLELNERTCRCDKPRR
Description: SPR Biacore T200, anti-Fab capture.

Test [4] has as its target T1, Human BTC. The experiment in a line: MSD-based inhibition of BTC binding to ErbB1.
The target of test [5] is T1, Human BTC. The experiment in a line: MSD-based inhibition of BTC binding to ErbB4.
The target of test [6] is T1, Human BTC. Description: cell-based inhibition of BTC binding to ErbB1.
Test [7] concerns the target T1, Human BTC. The experiment in a line: cell-based inhibition of BTC binding to ErbB4.
The target in test [8] is T6, membrane-bound human BTC on 293F-hBTC …. The experiment in a line: flow cytometry, 293F cells with BTC against 293F. On the technique in general: A flow cytometer gives signals particle by particle.
For test [9], the target named is T1, Human BTC. Description: SPR Biacore T200, anti-Fab capture, antigen as analyte.
Test [10] concerns the target T6, membrane-bound human BTC on 293F-hBTC …. The experiment in a line: flow cytometry on 293F cells with membrane-bound human BTC; y axis % Pos Binding. As to the method:
(§1) After washing the cells, the cells were dissociated using Versene at 37° C. The cells were washed with FACS buffer and plated at 100 μl in a 96 well plate using cells at 1×10⁶ cells/ml. Then 100 μl of a serial dilution of antibodies starting at 50 nM was used. The cells were incubated, washed and then treated with the secondary anti-human Fab-FITC antibody. The antibodies only bound to the cells expressing BTC. After which the cells were washed and analyzed on the Attune Flow Cytometry. All data analysis was carried out using Flow Jo software.
In FIG. 6A, Flow cytometry was used to assess the binding of NVS11 to membrane-bound BTC using an anti-human Fab antibody for detection.

The target in test [11] is T8, Human BTC-avitag-biotin (human, UniProt P35070 32-111, biotin on the avitag).
T8 construct: also called biotin-BTC; soluble human BTC-avitag-biotin
T8 sequence: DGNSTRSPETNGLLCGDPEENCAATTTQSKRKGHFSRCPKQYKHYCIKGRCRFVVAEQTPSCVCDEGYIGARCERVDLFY
Description: flow cytometry: inhibition of biotin-BTC binding to HKB11 cells over-expressing ErbB1; y axis Fluorescent Intensity. As to the method: (§2) In order to assess potency of the Fabs and bispecific in neutralizing binding of BTC to its receptor Erb 1 or ErbB4, the following assay was performed. HKB11 over-expressing either ErbB1 or ErbB4 cells were plated 1×10⁵ cells/well. Cells were washed once with FACS buffer by spun down at 1200 rpm for 5 minutes and supernatant removed. Next, the Fab sample dilutions and BTC were prepared in FACS buffer. Human BTC-avitag-biotin was diluted to a fixed concentration of 15 nM. The test Fab samples were prepared at a starting concentration of 40 nM and titrated for 9 points at a serial dilution of 1:2. Both biotin-BTC and the test Fab samples are incubated for 30 minutes at room temperature. The pre-incubated samples were then added to the cell plate at 100 μl per well in duplicate and incubated for 1 hour on ice. The plate was then washed once in FACS buffer and spun down at 1200 rpm for 5 minutes and supernatant removed. After suspending the cell pellet with 100 μl/well of diluted secondary antibody streptavidin-Alexa Fluor488 (1:2000) in FACS buffer, the cells were then incubated for 60 min on ice. The cells were washed once with FACS buffer and re-suspended in 120 μl of FACS buffer for flow cytometric analysis.
(§3) Measurements were performed on Attune Flow Cytometry machine. Data were analysed using the Flow Jo software. The live cell populations analysed were gated in forward and side scattering (FSC-A/SSC-A dot plot). The interval gate was established on the control histogram, which was obtained with sample incubated in streptavidin-Alexa Fluor488 only, and subsequently, determined percent of positive binding events of cells carrying membrane-bound receptor ErbB1 or ErbB4 and biotin-BTC. The median of fluorescence intensity (MFI) value was also derived for the live cell population. MFI values were then used to calculate for percent inhibition of test sample and subsequently plotted in GraphPad Prism 7.03 using nonlinear regression (curve fit) model to generate IC50 value.

The target in test [12] is T8, Human BTC-avitag-biotin. The experiment in a line: flow cytometry: inhibition of biotin-BTC binding to HKB11 cells over-expressing ErbB4; y axis Fluorescent Intensity. As to the method:
as §2, §3

For test [13], the target named is T6, membrane-bound human BTC on 293F-hBTC …. The experiment in a line: flow cytometry on 293F cells with membrane-bound human BTC; y axis % Pos Binding. On the procedure: as §1
This is another data set of the same source.

Read-outs that look alike come from different tables or passages of the source.

B1: NVS3 (Fab, V domains shown)
VH: QVQLLESGGGLVQPGGSLRLSCAASGFTFSSYAMSWVRQAPGKGLEWVSGLGHVGYTTYTDSVKGRFTISRDNSKNTLYLQMNSLRAEDTAVYYCARDYLDFGYYFDVWGQGTLVTVSS
VL: SYELTQPLSVSVALGQTARITCSGDKIGKKYVHWYQQKPGQAPVLVIYDDSDRPSGIPERFSGSNSGNTATLTISRAQAGDEADYYCQAWDMQSVVFGGGTKLTVLG
notes: also called Fab NVS3; anti-BTC Fab
The Kd is the free concentration of one partner at which half of the binding sites on the other are occupied at equilibrium, for simple one-to-one binding. Low readings indicate tighter binding, high ones weaker binding. For orientation: EC50 means the midpoint of the concentration-response curve. High values mean a less potent agent, low ones a more potent agent. By IC50 is commonly meant the point on the concentration scale where inhibition reaches its midpoint. With B1, the dissociation constant (Kd) in the test with Human BTC [1] is 0.0014 nM; with Mouse BTC it was below 0.001 nM; with Cyno BTC, 0.0054 nM; with Rat BTC it was 0.02 nM; with Rabbit BTC, 0.017 nM; in the test with Human BTC [9], 0.0044 nM. The “A431 pERK (column head: IC50 in nM; cell printed as percent)” value with Human BTC [2] was above 90%. Further, the “ADR/Res pErbB3 (IC50 in nM)” value with Human BTC [2] was 7.89 nM. For the same molecule, the “Neutralization of juxtacrine signaling” value in test [3] was 99%. Also, the binding result with Human VEGF165 is on record as “no binding”. For the same molecule, the “MSD-based binding inhibition BTC/ErbB1” value with Human BTC [4] was above 90%. The “MSD-based binding inhibition BTC/ErbB4” value with Human BTC [5] is above 90%. The “Cell-based binding inhibition BTC/ErbB1” value with Human BTC [6] is above 90%. The “Cell-based binding inhibition BTC/ErbB4” value with Human BTC [7] was above 90%. The “Binding to membrane-anchored BTC (median, X above 293F)” value (shortened to “Binding to membrane-anchored BTC”) in [8] is above 10 X above 293F. The molecule also yielded an EC50 in [10] of 0.322 nM. The IC50 with Human BTC-avitag-biotin [11] came to 1.81 nM; in the test with Human BTC-avitag-biotin [12], 2.04 nM.

B2: NVS4 (Fab, V domains shown)
VH: QVQLLESGGGLVQPGGSLRLSCAASGFTFSRYWISWVRQAPGKGLEWVSYIDSTGTFINYADSVKGRFTISRDNSKNTLYLQMNSLRAEDTAVYYCARGGSLFDYWGQGTLVTVSS
VL: DIQMTQSPSSLSASVGDRVTITCRASQGIISYLGWYQQKPGKAPKLLIYAASSLQSGVPSRFSGSGSGTDFTLTISSLQPEDFATYYCQQYDALNTFGQGTKVEIKR
notes: also called NVS4 Fab; Fab NVS4
As a reminder, the inhibition is the share of the control response that was lost under treatment. Read a low inhibition as a weak effect. For the molecule B2, the Kd with Human BTC [1] came out at 0.005 nM; in the test with Mouse BTC it was 0.005 nM; with Cyno BTC, 0.012 nM; in the test with Rat BTC it was 0.008 nM; with Rabbit BTC, 0.001 nM; with Human BTC [9], 0.0043 nM. Besides, the “A431 pERK (IC50 in nM)” value with Human BTC [2] turned out to be 0.49 nM. Further, in the test with Human BTC [2], the “ADR/Res pErbB3 (IC50 in nM)” value is 6.1 nM. For the same molecule, the inhibition with Human BTC [2] came to 99.4%. Besides, the “Neutralization of juxtacrine signaling” value in test [3] came to 87%. For the same molecule, the “MSD-based binding inhibition BTC/ErbB1” value with Human BTC [4] was above 90%. For the same molecule, in the test with Human BTC [5], the “MSD-based binding inhibition BTC/ErbB4” value is above 90%. Further, the “Cell-based binding inhibition BTC/ErbB1” value with Human BTC [6] was above 90%. Moreover, in the test with Human BTC [7], the “Cell-based binding inhibition BTC/ErbB4” value was above 90%. For the same molecule, the “Binding to membrane-anchored BTC” value in [8] was above 10 X above 293F. For the same molecule, the EC50 in test [13] worked out at 0.238 nM. Besides, the IC50 was 1.61 nM with Human BTC-avitag-biotin [11] and 1.8 nM with Human BTC-avitag-biotin [12].

B3: NVS2 (Fab, V domains shown)
VH: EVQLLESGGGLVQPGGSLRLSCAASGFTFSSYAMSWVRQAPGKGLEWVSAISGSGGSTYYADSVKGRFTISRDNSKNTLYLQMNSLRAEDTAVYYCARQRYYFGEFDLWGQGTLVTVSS
VL: SYELTQPPSVSVSPGQTASITCSGDKLGDKYAYWYQQKPGQSPVLVIYQDSKRPSGIPERFSGSNSGNTATLTISGTQAEDEADYYCQAFDYLYSLGVFGGGTKLTVLG
notes: also called Fab NVS2; anti-BTC Fab
With B3, the Kd with Human BTC [1] is 0.014 nM; with Mouse BTC it was 0.009 nM; in the test with Cyno BTC it was 0.016 nM; with Rat BTC it was 0.021 nM; with Rabbit BTC, 0.005 nM; with Human BTC [9], 0.0047 nM. Besides, the “A431 pERK (IC50 in nM)” value in the test with Human BTC [2] turned out to be 0.37 nM. Also, the “ADR/Res pErbB3 (IC50 in nM)” value with Human BTC [2] is 6.3 nM. Moreover, the inhibition with Human BTC [2] worked out at 99.7%. Further, the “Neutralization of juxtacrine signaling” value in [3] was determined as 90%. Besides, in the test with Human VEGF165, the binding result was “no binding”. The “MSD-based binding inhibition BTC/ErbB1” value in the test with Human BTC [4] was above 90%. For the same molecule, the “MSD-based binding inhibition BTC/ErbB4” value in the test with Human BTC [5] was above 90%. Also, the “Cell-based binding inhibition BTC/ErbB1” value in the test with Human BTC [6] was above 90%. In addition, the “Cell-based binding inhibition BTC/ErbB4” value in the test with Human BTC [7] is above 90%. Further, the “Binding to membrane-anchored BTC” value in test [8] was above 10 X above 293F. In addition, the EC50 in [10] turned out to be 0.256 nM. Moreover, the results for the half-maximal inhibitory concentration (IC50) with Human BTC-avitag-biotin [11] and in the test with Human BTC-avitag-biotin [12] were 1.73 nM and 1.83 nM, respectively.

(Values after patent publication US20220025032A1 (Novartis, published 2022).)
